The subject of assay [1] is HEK293/EGFRvIII cells. Description: Internalization of anti-EGFRvIII mAbs. The assay is classed as cell-based, human. The settings on record: 37° C., 1 h. As for the experimental part: Anti-EGFRvIII mAbs (10 ug/ml) were incubated with HEK293/[…] (see Example 7, supra) cells for 2 hours on ice followed by two PBS washes. Cells were then subjected to a 30-min incubation on ice with secondary DYLIGHT™ 488-conjugated anti-human IgG Fab fragments (Jackson ImmunoResearch Laboratories) followed by two additional PBS washes. Antibodies were allowed to internalize for 1 h at 37° C. in internalization buffer (PBS+FBS) or remained at 4° C. Cells were fixed in 4% formaldehyde, and nuclei stained with DRAQ5® DNA dye (Cell Signaling Technology, Inc.). Images were acquired at 40× on the IMAGEXPRESS™ high content system (Molecular Devices) and internalized vesicles were quantitated using Columbus software (Perkin Elmer).

Assay [2] has as its system EGFRvIII-mFc. It counts as binding, human. The settings on record: 37° C., receptor-capture, EGFRvIII-mFc captured. The method, then:
(§1) Measurements were conducted on a T100 BIACORE™ instrument. […] In the receptor-capture format, either EGFRvIII-mFc or EGFR-mFc, was captured on the BIACORE™ chip and the respective antibodies flowed over. Kinetic association (ka) and dissociation (kd) rate constants were determined by processing and fitting the data to a 1:1 binding model using Scrubber 2.0 curve fitting software. Binding dissociation equilibrium constants (KD) and dissociative half-lives (t1/2) were calculated from the kinetic rate constants as: KD (M)=kd/ka; and t1/2 (min)=ln 2/(60*kd).

Assay [3] relates to HEK293 cells. The assay is described as follows: FACS cell binding selectivity. The assay is classed as cell-based. The settings on record: 10 μg/ml. As for the experimental part: To determine the specificity of the anti-EGFRvIII mAbs, their binding to HEK293, HEK293 cells expressing EGFRvIII (HEK293/EGFRvIII) and A431 cells, was analyzed by fluorescence activated cell sorting (FACS). HEK293/EGFRvIII cells were prepared by transfecting HEK293 cells with neomycin resistant DNA vectors constitutively expressing full-length hEGFRvIII (SEQ ID NO:147) using LIPOFECTAMINE™ 2000 transfection reagent (INVITROGEN™). At two days post-transfection, cells were placed under G418 selection for approximately two weeks. Populations positively expressing EGFRvIII were isolated via fluorescence activated cell sorting (FACS). The HEK293 cells expressing ˜3×10^6 copies of EGFRvIII per cell were used in the experiment. Briefly, the anti-EGFRvIII antibodies at 10 μg/ml were incubated with cells for 30 minutes at room temperature, washed, incubated with secondary antibody, i.e., phycoerythrin (PE)-labeled goat F(ab′)2 against human IgG (cat #109-116-170, Jackson ImmunoResearch Laboratories), followed by a final wash before FACS analysis. In another set of experiment, anti-EGFRvIII antibodies were directly conjugated via their lysine residues with the fluorescent dye, ALEXA FLUOR® 488 Dye (INVITROGEN™), thereby eliminating the step using the secondary antibody. […] Controls I, II, III, IV and V are described above. MFI: Mean Fluorescence Intensity.

Assay [4] deals with T1, EGFR-mFc (Homo sapiens, UniProt P00533). The assay is described as follows: SPR (BIACORE) binding kinetics, receptor-capture format. The settings on record: 37° C., EGFR-mFc captured, NB=no binding. The method, then: as §1
Assay [5] addresses junctional peptide (J-peptide) (Homo sapiens, UniProt P00533, DELINS30-297G). The assay is described as follows: Antibody specificity by ELISA. The settings on record: ELISA binding. As for the experimental part:
(§2) To further characterize anti-hEGFRvIII mAbs, their binding specificity was examined by ELISA. […] For the junctional peptides that were linked to biotin either at C-terminal (SEQ ID NO:149) or N-terminal (SEQ ID NO:150) via a linker, plates were pre-coated with avidin. Also, coated was an irrelevant peptide (control peptide) with or without biotin at its N-terminal. Anti-EGFRvIII antibodies as well as an isotype control antibody were added to coated plates and allowed to incubate for 1 hour at 25° C. The plates were then washed and bound anti-EGFRvIII mAbs were detected with anti-human Fc antibodies conjugated with horse-radish peroxidase (HRP). […] Data analysis used a sigmoidal dose-response model within PRISM™ software.
(In general: ELISA stands for enzyme-linked immunosorbent assay.)

For assay [6], the target named is C-term biotin J-peptide (Homo sapiens, UniProt P00533, DELINS30-297G). The assay is described as follows: Antibody specificity by ELISA. Conditions: ELISA binding, avidin pre-coated plates. As for the experimental part: as §2
For assay [7], the target named is N-term biotin J-peptide (Homo sapiens, UniProt P00533, DELINS30-297G). The assay is described as follows: Antibody specificity by ELISA. Conditions: ELISA binding, avidin pre-coated plates. As for the experimental part: as §2
Assay [8] has as its system Control peptide. The assay is described as follows: Antibody specificity by ELISA. The settings on record: ELISA binding, irrelevant peptide. As for the experimental part:
(§3) To further characterize anti-hEGFRvIII mAbs, their binding specificity was examined by ELISA. […] For the junctional peptides that were linked to biotin either at C-terminal (SEQ ID NO:149) or N-terminal (SEQ ID NO:150) via a linker, plates were pre-coated with avidin. Also, coated was an irrelevant peptide (control peptide) with or without biotin at its N-terminal. Anti-EGFRvIII antibodies as well as an isotype control antibody were added to coated plates and allowed to incubate for 1 hour at 25° C. The plates were then washed and bound anti-EGFRvIII mAbs were detected with anti-human Fc antibodies conjugated with horse-radish peroxidase (HRP). Plates were developed with a tetra-methyl-benzidine (TMB) substrate solution to produce a colorimetric reaction and neutralized with sulfuric acid before reading absorbance at 450 nm on a VICTOR™ X5 plate reader. Data analysis used a sigmoidal dose-response model within PRISM™ software. […] NT: Not tested. Controls I-III: As described above.

Assay [9] has as its system N-term Biotin control peptide. Description: Antibody specificity by ELISA. Conditions: ELISA binding, irrelevant peptide with N-terminal biotin. The method, then:
as §3

Assay [10] addresses EGFRvIII-mmh (Homo sapiens, UniProt P00533, DELINS30-297G). The assay is described as follows: SPR (BIACORE) binding kinetics, mAb-capture format. The settings on record: 37° C., NB=no binding; for ka: analyte EGFRvIII-mmh (monomeric); for kd: analyte EGFRvIII-mmh. The method, then: as §1
The subject of assay [11] is EGFRvIII-mFc. The assay is described as follows: SPR (BIACORE) binding kinetics, mAb-capture format. Conditions: 37° C., NB=no binding; for ka: analyte EGFRvIII-mFc (dimeric); for kd: analyte EGFRvIII-mFc. Details: species or system human.
The target in assay [12] is T1, EGFR-mFc. Description: SPR (BIACORE) binding kinetics, mAb-capture format. Conditions: 37° C., NB=no binding. Background: SPR reads the build-up and loss of mass on a sensor chip optically.
Assay [13] deals with EGFR-mmh (Homo sapiens, UniProt P00533). The assay is described as follows: SPR (BIACORE) binding kinetics, mAb-capture format. The settings on record: 37° C., NB=no binding.
[14] abbreviates: directly labeled (ALEXA FLUOR 488) antibodies.

The record followed here is patent US11608380B2, “Anti-EGFRvIII antibodies and uses thereof” (REGENERON PHARMACEUTICALS, INC., priority 2014, dated 2023).

Read-outs that look alike come from different tables or passages of the source. A value given as a limit tells only on which side of the number the result lay.

The term EC50 denotes the midpoint of the concentration-response curve. Low values mean a more potent agent, high ones a less potent agent. In general, Kd refers to a measure of binding affinity in units of concentration.

Sequence of EGFRvIII-mFc (as listed by the source): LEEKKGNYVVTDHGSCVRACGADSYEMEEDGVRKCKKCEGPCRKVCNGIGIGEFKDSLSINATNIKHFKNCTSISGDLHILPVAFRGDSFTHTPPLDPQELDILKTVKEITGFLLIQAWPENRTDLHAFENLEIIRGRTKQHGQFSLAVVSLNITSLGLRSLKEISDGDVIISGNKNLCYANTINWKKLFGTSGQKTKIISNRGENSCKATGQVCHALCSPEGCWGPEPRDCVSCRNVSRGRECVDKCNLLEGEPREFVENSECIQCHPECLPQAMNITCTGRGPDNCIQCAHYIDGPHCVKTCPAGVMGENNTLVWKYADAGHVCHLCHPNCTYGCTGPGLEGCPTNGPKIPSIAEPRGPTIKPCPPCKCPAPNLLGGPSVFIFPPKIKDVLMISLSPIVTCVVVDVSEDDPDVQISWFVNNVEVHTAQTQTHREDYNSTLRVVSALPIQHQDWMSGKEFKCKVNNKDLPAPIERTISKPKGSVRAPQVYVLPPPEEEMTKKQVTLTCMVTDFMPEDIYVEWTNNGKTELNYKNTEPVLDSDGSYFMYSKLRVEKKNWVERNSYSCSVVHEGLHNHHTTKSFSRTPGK

B1: H1H1911N: human IgG1 Fc anti-EGFRvIII antibody with variable domains 1911; HCVR/LCVR SEQ ID NOs 50/58 (antibody, V domains shown)
VH: QVQLVESGGGVVQPGRSLRLSCAASGFTFSRYGIHWVRQAPGKGLEWVAVIWHDGSNKYYADSVKGRFTISRDNSKNTLYLQMTSLRAEDTAVYYCARDGLEIRDHYYYGMDVWGQGTTVTVSS
VL: DIQMTQSPSTLSASVGDRVTITCRASQSTSSWLAWYQQKPGKAPTLLIYKASSLESGVPSKFSGSGSGTEFTLTISSLQPDDFATYYCQQYNRYSRTFGQGTKVEIK
modifications: human IgG1 Fc
In the case of B1, in assay [1], the internalization entry is listed as “Internalization was also observed”. In addition, the ka in assay [2] was 32900 M⁻¹ s⁻¹; in assay [4] it was 7770 M⁻¹ s⁻¹. Further, the kd in [2] worked out at 0.000643 s⁻¹; in assay [4] it was 0.00174 s⁻¹. For the same molecule, the “Parental HEK293 MFI” value in [3] (setting [14]) is on record as 3593; in assay [3] (secondary PE-labeled anti-Fc), 1812. Besides, the EC50 in assay [5], in assay [6], in [7], in [8] and in assay [9] was over 10 nM each time.

B2: H1H1913N: human IgG1 Fc anti-EGFRvIII antibody with variable domains 1913; HCVR/LCVR SEQ ID NOs 130/138 (antibody, V domains shown)
VH: QVQLQQWGAGLLKPSETLSLTCAVYGGSFSGDYWSWIRQSPGKGLEWIGEINHSGSTNYNPSLKSRVTISIDTSKNQFSLKLSSVTAADTAVYYCARGGGDYYYGMDVWGLGTTVTVSS
VL: AIQMTQSPSSLSASVGDRVTITCRASQGIGNDLGWYQQKPGKAPNLLIYATSSLQSGVPSRFSGSGSGTDFTLTISSLQPEDFATYYCLQDYNYPWTFGQGTKVEIK
modifications: human IgG1 Fc
On to B2, for which the ka in assay [10] was found to be 163 M⁻¹ s⁻¹; in [2], 63000 M⁻¹ s⁻¹; in [4], 5930 M⁻¹ s⁻¹; in assay [11] it was 14000 M⁻¹ s⁻¹. In addition, the figures for the kd in assay [10], in [4] and in [11] were 0.00114 s⁻¹, 1e-06 s⁻¹ and 0.000316 s⁻¹, respectively. In [2], this molecule registered a Kd of 0.0158 nM. Also, the “Parental HEK293 MFI” value in assay [3] (setting [14]) is reported as 4801.

B3: H1H1912N: human IgG1 Fc anti-EGFRvIII antibody with variable domains 1912; HCVR/LCVR SEQ ID NOs 66/74 (antibody, V domains shown)
VH: EVQLVESGGGLVQPGRSLRLSCAASGFTFDDYAMHWVRQVPGKGLEWVSGISWNSGSIGYADSVKGRFTISRDNAKNSLYLQMNSLRAEDTALYYCAKDIHDYGKDYYYYYGMDVWGQGTTVTVSS
VL: EIALTQSPGTLSLSPGERATLSCRASQSVSSTYLAWYQQKPGQAPRLLIYGASSRATGIPDRFSGSGSGTDFTLTISRLEPEDFAVYYCQQYDSSPITFGQGTRLEIK
modifications: human IgG1 Fc
With B3, the internalization entry in assay [1] was “Internalization was also observed”. For the same molecule, the ka in assay [10] was determined as 18300 M⁻¹ s⁻¹; in assay [2], 99000 M⁻¹ s⁻¹; in [4], 39900 M⁻¹ s⁻¹; in assay [11] it was 20400 M⁻¹ s⁻¹. For the same molecule, the kd in assay [10] stood at 0.0164 s⁻¹; in assay [2] it was 0.000537 s⁻¹; in assay [4], 0.000914 s⁻¹; in assay [11], 0.000971 s⁻¹. In assay [3] (setting [14]), the “Parental HEK293 MFI” value worked out at 3727. Besides, the EC50 in assay [5], in [6], in [7], in assay [8] and in [9] was over 10 nM in each case.

B4: H1H2195P: human IgG1 Fc anti-EGFRvIII antibody; HCVR/LCVR SEQ ID NOs 18/26 (antibody, V domains shown)
VH: QVQLVESGGGVVQPGRSRRLSCVGSGFIFSSYGMHWVRQAPGKGLEWVALIFYDGSNEYYVDSVKGRFTISRDNSKNTLYLQMNSLRAEDTAVYYCAREGYSQRYKYYFGMDVWGQGTTVTVSS
VL: DIQMTQSPSSVSASVGDRVTITCRASQGISSWLAWYQQQPGKAPKLLIYAASSLQSGVPSRFSGSGSGTDFTLTISSLQPEDFATYYCQQTNSFPLTFGGGTKVEIKR
modifications: human IgG1 Fc
Turning to B4, the ka in assay [12] (analyte EGFR-mFc (dimeric)) stood at 92000 M⁻¹ s⁻¹; in [13] (analyte EGFR-mmh (monomeric)), 56600 M⁻¹ s⁻¹; in [10], 64800 M⁻¹ s⁻¹; in assay [2] it was 237000 M⁻¹ s⁻¹; in assay [4], 225000 M⁻¹ s⁻¹; in assay [11], 102000 M⁻¹ s⁻¹. In addition, the kd in assay [12] (analyte EGFR-mFc) worked out at 0.000189 s⁻¹; in assay [13] (analyte EGFR-mmh), 0.000523 s⁻¹; in [10], 0.000694 s⁻¹; in [2] it was 2.53e-05 s⁻¹; in [4], 5.2e-05 s⁻¹; in [11], 0.000113 s⁻¹. Also, the “Parental HEK293 MFI” value in [3] (secondary PE-labeled anti-Fc) stood at 1176. Also, the EC50 in [5], in assay [6], in [7], in [8] and in [9] was over 10 nM in each case.
